Reference: publication PMC11696079

Columns and labels:
[1] = biological target: circPETH-147aa MEG/3 A, recombinant (human); experiment: SPR
[2] = biological target: circPETH-147aa, recombinant wild type (human); experiment: SPR

B1: recombinant wild-type ALDOA (WT) (enzyme)
chain: PYQYPALTPEQKKELSDIAHRIVAPGKGILAADESTGSIAKRLQSIGTENTEENRRFYRQLLLTADDRVNPCIGGVILFHETLYQKADDGRPFPQVIKSKGGVVGIKVDKGVVPLAGTNGETTTQGLDGLSERCAQYKKDGADFAKWRCVLKIGEHTPSALAIMENANVLARYASICQQNGIVPIVEPEILPDGDHDLKRCQYVTEKVLAAVYKALSDHHIYLEGTLLKPNMVTPGHACTQKFSHEEIAMATVTALRRTVPPAVTGITFLSGGQSEEEASINLNAINKCPLLKPWALTFSYGRALQASALKAWGGKKENLKAAQEEYVKRALANSLACQGKYTPSGQAGAAASESLFVSNHAY
Q: What does the source list for B1?
A: Kd [1]: 1410 nM; Kd [2]: 42.4 nM
